# Activity calls are given as the source filed them. The rule behind the calls is not given here.
# Key:
# [1] = biological target: Protease (Human immunodeficiency virus 1) (UniProt Q9YQ12); conditions: 1 to 180 uM
# [2] = test system: Human immunodeficiency virus type 1 protease (Human immunodeficiency virus 1), Q72874 [L10I,L63P,A71V,G73S,I84V,L90M]; conditions: 1 to 180 uM
# [3] = test system: O=C1c2cccc([N+](=O)[O-])c2C(=O)N1c1ccc2[nH]c(=S)sc2c1; conditions: Human immunodeficiency virus 1; 100 uM
# [4] = test system: O=C1c2cccc([N+](=O)[O-])c2C(=O)N1c1ccc2[nH]c(=S)sc2c1; conditions: Human immunodeficiency virus 1; 150 uM
# [5] = test system: O=C1c2cccc([N+](=O)[O-])c2C(=O)N1c1ccc2[nH]c(=S)sc2c1; conditions: Human immunodeficiency virus 1; 100 uM; remark: listed apart in the source
# [6] = test system: O=C1c2cccc([N+](=O)[O-])c2C(=O)N1c1ccc2[nH]c(=S)sc2c1; conditions: Human immunodeficiency virus 1; 150 uM; remark: listed apart in the source
# [7] = test system: O=C1c2cccc([N+](=O)[O-])c2C(=O)N1c1ccc2[nH]c(=S)sc2c1; conditions: Human immunodeficiency virus 1; 100 uM; remark: listed apart in the source
# [8] = test system: O=C1c2cccc([N+](=O)[O-])c2C(=O)N1c1ccc2[nH]c(=S)sc2c1; conditions: Human immunodeficiency virus 1; 150 uM; remark: listed apart in the source
# [9] = test system: O=C1c2cccc([N+](=O)[O-])c2C(=O)N1c1ccc2[nH]c(=S)sc2c1; conditions: Human immunodeficiency virus 1; 100 uM; remark: listed apart in the source
# [10] = test system: O=C1c2cccc([N+](=O)[O-])c2C(=O)N1c1ccc2[nH]c(=S)sc2c1; conditions: Human immunodeficiency virus 1; 150 uM; remark: listed apart in the source
compound,measurement,setting,value
O=C1c2cccc([N+](=O)[O-])c2C(=O)N1c1ccc2[nH]c(=S)sc2c1,inhibition,[1],inactive
same,inhibition,[2],inactive
"Human immunodeficiency virus type 1 protease (Human immunodeficiency virus 1), Q72874 L10I,L63P,A71V,G73S,I84V,L90M",Km,[3],246 µM
same,Vmax,[4],30 nM/s
same,Vmax,[5],30 nM/s
same,Km,[6],359 µM
"Protease (Human immunodeficiency virus 1), Q9YQ12",Vmax,[7],35 nM/s
same,Vmax,[8],34 nM/s
same,Km,[9],144 µM
same,Km,[10],184 µM

# — ChEMBL document CHEMBL3392998
